The text below walks through data of doi:10.1101/2021.10.29.466147 (bioRxiv, 2021).

Data set [1] has as its target T1, Ycg1, HEAT-repeat subunit II of S. cerevisiae condensin (S. cerevisiae, UniProt Q06680 1-1035).
T1 sequence (looked up): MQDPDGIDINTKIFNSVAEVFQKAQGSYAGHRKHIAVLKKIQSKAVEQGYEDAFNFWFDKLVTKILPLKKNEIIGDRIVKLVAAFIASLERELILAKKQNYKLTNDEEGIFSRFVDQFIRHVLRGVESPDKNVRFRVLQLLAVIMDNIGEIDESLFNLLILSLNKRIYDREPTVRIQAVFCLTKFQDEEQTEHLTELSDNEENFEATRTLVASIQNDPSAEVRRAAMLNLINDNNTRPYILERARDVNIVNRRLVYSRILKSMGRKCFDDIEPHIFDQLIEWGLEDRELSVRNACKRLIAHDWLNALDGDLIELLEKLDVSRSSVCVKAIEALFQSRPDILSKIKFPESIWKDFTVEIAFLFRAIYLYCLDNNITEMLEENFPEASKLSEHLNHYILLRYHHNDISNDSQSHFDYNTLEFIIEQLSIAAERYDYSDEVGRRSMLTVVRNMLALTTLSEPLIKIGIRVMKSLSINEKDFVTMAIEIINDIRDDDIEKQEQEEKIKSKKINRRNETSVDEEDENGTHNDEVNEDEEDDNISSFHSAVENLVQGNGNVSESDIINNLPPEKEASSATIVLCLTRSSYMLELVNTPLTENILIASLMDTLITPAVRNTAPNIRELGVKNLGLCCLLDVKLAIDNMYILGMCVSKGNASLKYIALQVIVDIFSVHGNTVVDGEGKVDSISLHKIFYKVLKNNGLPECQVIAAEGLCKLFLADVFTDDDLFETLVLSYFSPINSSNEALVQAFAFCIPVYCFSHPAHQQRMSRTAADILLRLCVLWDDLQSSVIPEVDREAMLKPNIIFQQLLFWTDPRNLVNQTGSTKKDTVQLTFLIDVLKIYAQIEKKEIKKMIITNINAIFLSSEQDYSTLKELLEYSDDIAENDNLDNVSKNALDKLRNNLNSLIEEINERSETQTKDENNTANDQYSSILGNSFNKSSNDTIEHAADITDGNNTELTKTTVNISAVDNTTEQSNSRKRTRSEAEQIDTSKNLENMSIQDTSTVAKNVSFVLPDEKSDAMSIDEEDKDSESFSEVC
Description: co-purification.

In data set [2] the target is T2, Ycs4, HEAT-repeat subunit I of S. cerevisiae condensin (S. cerevisiae, UniProt Q06156 1-1176).
T2 sequence: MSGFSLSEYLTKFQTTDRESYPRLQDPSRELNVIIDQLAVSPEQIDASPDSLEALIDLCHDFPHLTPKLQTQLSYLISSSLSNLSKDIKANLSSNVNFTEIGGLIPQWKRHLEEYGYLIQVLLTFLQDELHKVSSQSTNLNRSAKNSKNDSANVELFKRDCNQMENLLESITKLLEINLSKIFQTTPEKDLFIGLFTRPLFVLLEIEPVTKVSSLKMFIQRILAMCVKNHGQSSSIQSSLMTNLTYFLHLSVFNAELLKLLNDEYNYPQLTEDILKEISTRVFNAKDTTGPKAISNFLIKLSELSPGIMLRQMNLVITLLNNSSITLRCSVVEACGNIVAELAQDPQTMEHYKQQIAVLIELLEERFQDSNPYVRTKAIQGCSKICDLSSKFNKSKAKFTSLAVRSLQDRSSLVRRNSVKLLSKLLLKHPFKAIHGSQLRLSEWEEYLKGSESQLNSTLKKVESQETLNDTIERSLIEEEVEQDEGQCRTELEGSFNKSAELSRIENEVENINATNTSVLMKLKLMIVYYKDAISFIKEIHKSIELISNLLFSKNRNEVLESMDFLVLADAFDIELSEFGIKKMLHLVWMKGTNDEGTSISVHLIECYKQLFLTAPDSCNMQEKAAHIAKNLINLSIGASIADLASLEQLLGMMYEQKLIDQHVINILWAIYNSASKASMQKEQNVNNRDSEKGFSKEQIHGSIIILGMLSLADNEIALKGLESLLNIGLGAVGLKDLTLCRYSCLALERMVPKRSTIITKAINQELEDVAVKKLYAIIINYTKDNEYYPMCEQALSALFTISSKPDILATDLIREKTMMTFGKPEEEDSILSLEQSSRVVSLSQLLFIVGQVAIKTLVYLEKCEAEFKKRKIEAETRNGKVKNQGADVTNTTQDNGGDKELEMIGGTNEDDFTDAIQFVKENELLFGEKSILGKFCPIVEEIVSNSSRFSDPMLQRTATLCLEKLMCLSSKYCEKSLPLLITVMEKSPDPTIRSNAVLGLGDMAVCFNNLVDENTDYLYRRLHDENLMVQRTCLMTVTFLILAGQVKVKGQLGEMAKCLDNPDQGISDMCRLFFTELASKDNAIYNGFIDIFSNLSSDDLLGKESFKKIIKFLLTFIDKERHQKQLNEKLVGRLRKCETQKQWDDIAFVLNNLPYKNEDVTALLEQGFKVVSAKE
Description: cryo-EM structure.

Data set [3] addresses condensin holo complex Smc2-Smc4-Brn1-Ycs4-Ycg1, Walker B EQ mutant (Saccharomyces cerevisiae, UniProt P38989;Q12267;P38170;Q06156;Q06680 1-1170;1-1418;1-754;1-1176;1-1035, E1113Q;E1352Q). Kind of data set: cryo-EM.

Chain of condensin holo complex Smc2-Smc4-Brn1-Ycs4-Ycg1, Walker B EQ mutant (P38989 whole entry E1113Q, chain 1 of 2): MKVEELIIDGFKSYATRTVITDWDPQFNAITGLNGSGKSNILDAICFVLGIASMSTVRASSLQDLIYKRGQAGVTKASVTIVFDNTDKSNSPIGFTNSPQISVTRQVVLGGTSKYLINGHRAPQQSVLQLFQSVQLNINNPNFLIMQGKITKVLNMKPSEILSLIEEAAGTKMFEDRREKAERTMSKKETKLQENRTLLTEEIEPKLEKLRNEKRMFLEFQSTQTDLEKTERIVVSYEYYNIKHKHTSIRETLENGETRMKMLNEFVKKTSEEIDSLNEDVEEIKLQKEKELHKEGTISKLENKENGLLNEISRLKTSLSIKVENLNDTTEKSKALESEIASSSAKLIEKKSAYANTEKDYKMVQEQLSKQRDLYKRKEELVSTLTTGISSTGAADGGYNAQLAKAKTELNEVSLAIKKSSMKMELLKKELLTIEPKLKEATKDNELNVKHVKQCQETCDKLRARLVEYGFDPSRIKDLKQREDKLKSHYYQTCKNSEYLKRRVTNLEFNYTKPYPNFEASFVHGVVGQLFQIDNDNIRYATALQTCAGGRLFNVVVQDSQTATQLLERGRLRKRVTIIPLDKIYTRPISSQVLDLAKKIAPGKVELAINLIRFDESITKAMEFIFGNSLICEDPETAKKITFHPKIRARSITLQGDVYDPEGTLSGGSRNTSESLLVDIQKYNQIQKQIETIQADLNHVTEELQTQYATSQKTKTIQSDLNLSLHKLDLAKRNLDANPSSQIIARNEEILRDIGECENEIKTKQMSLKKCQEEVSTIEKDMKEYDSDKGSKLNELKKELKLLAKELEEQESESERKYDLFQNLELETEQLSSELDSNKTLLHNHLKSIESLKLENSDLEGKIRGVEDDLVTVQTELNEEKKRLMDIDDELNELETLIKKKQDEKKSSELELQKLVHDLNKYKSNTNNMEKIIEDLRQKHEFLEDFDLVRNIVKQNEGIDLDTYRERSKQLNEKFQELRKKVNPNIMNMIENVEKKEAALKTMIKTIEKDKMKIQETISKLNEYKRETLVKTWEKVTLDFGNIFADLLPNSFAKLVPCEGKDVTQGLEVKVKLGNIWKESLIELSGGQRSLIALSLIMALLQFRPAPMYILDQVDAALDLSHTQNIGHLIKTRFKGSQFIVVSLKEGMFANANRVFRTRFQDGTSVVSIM
Chain of condensin holo complex Smc2-Smc4-Brn1-Ycs4-Ycg1, Walker B EQ mutant (Q12267 whole entry E1352Q, chain 2 of 2): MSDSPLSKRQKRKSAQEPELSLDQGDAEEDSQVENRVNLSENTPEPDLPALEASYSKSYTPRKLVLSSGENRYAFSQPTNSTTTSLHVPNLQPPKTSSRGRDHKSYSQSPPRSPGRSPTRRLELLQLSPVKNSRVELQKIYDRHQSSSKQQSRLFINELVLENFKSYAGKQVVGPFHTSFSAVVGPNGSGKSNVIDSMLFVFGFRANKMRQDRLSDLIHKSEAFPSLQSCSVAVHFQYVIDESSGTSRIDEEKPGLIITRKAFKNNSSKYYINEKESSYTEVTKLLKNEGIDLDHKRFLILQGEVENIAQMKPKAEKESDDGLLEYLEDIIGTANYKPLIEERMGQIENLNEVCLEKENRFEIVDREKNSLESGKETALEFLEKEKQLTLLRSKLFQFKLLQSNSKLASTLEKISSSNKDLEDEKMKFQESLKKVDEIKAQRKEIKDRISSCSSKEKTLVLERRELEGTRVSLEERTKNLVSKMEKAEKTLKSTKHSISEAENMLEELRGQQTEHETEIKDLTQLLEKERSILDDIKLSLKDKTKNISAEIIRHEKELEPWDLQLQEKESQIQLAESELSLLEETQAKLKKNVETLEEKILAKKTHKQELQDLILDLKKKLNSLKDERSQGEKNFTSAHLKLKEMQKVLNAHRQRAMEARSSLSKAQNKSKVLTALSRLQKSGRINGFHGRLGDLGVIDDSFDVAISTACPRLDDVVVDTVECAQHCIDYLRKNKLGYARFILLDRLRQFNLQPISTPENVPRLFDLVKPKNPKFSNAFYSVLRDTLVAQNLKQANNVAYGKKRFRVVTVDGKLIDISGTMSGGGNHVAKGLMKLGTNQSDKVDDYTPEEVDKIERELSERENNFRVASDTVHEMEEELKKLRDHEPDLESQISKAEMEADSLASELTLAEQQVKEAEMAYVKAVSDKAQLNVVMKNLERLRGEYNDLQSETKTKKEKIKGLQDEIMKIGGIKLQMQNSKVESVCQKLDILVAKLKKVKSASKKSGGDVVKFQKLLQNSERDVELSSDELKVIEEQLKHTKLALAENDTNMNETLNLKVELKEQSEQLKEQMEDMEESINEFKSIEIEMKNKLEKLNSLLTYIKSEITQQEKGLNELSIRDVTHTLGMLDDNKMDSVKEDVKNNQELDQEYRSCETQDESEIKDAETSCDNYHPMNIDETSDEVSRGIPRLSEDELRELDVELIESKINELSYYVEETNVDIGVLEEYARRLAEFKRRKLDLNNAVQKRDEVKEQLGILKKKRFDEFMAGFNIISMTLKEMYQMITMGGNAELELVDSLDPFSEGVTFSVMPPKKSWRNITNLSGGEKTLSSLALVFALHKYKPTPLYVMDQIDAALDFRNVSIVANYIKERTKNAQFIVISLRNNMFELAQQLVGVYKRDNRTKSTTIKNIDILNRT

B1: Brn1-His12-HA3, kleisin subunit of S. cerevisiae condensin (natural protein)
chain: MTTQLRYENNDDDERVEYNLFTNRSTMMANFEEWIKMATDNKINSRNSWNFALIDYFYDLDVLKDGENNINFQKASATLDGCIKIYSSRVDSVTTETGKLLSGLAQRKTNGASNGDDSNGGNGEGLGGDSDEANIEIDPLTGMPISNDPDVNNTRRRVYNRVLETTLVEFETIKMKELDQELIIDPLFKKALVDFDEGGAKSLLLNTLNIDNTARVIFDASIKDTQNVGQGKLQRKEEELIERDSLVDDENEPSQSLISTRNDSTVNDSVISAPSMEDEILSLGMDFIKFDQIAVCEISGSIEQLRNVVEDINQAKDFIENVNNRFDNFLTEEELQAAVPDNAEDDSDGFDMGMQQELCYPDENHDNTSHDEQDDDNVNSTTGSIFEKDLMAYFDENLNRNWRGREHWKVRNFKKANLVNKESDLLEETRTTIGDTTDKNTTDDKSMDTKKKHKQKKVLEIDFFKTDDSFEDKVFASKGRTKIDMPIKNRKNDTHYLLPDDFHFSTDRITRLFIKPGQKMSLFSHRKHTRGDVSSGLFEKSTVSANHSNNDIPTIADEHFWADNYERKEQEEKEKEQSKEVGDVVGGALDNPFEDDMDGVDFNQAFEGTDDNEEASVKLDLQDDEDHKFPIRENKVTYSRVSKKVDVRRLKKNVWRSINNLIQEHDSRKNREQSSNDSETHTEDESTKELKFSDIIQGISKMYSDDTLKDISTSFCFICLLHLANEHGLQITHTENYNDLIVNYEDLATTQAAS
As to B1, the binding result in data set [1] and in data set [2] was “binds” throughout.

B2: 50-bp dsDNA (cryo-EM) (dsDNA)
DNA 1: GTTGACAGTGTCGCAACCTGCACAGGCAAGCTGCTGAGTCTGGTGTAGAC
DNA 2: GTCTACACCAGACTCAGCAGCTTGCCTGTGCAGGTTGCGACACTGTCAAC
As for B2, the binding result in data set [3] is on record as “binds”.
